# Measured values published in patent US20260241049A1, “Radiopharmaceutical Compositions Targeting Glypican-3 and Uses Thereof” (RayzeBio, Inc., priority 2023, published 2026).
# Starred links: 1 amine or outer side, 2 acyl side, 3 side chain; linkers in the order of their positions; H or OH if unused. Positions of bridges follow the written chain, without caps; N, C: chain ends. Non-standard residues stand in square brackets, D forms with d. Primed or numbered codes have the meaning given here. YaeCOpipzaa = 2-amino-3-(4-(2-(4-(carboxymethyl)piperazine-1-carboxamido)ethoxy)phenyl)propanoic acid, O=C(NCCOc1ccc(C[C@H](N[*:1])C(=O)[*:2])cc1)N1CCN(CC(=O)[*:3])CC1; MeHseMe(3) = N-methyl-O-methyl-homoserine, 4-methoxy-2-(methylamino)butanoic acid, COCC[C@@H](C(=O)[*:2])N(C)[*:1]; Thr(Me) = O-methyl threonine, (3R)-2-amino-3-methoxybutanoic acid, CO[C@H](C)[C@H](N[*:1])C(=O)[*:2]; F4aao = 4-(carboxymethoxy)-L-phenylalanine, O=C([C@H](Cc1ccc(OCC(=O)[*:3])cc1)N[*:1])[*:2]; DOTA‑Lu″ = DOTA chelate of lutetium (175Lu), attached as an amide to the side-chain amine; MeHseMe = N-methyl-O-methyl-L-homoserine, COCC[C@@H](C(=O)[*:2])N(C)[*:1]; Thr(Me)(3) = TMe, O-methyl-L-threonine, CO[C@H](C)[C@H](N[*:1])C(=O)[*:2]; Phe(4-(1-Me-pyrazol-4-yl)) = Cn1cc(-c2ccc(C[C@H](N)C(=O)O)cc2)cn1; NMeAla(isoquinolin-7-yl) = CN[C@@H](Cc1ccc2ccncc2c1)C(=O)O; Phe(4-CH2COOH) = N[C@@H](Cc1ccc(CC(=O)O)cc1)C(=O)O; 3Pal(6-Ph) = N[C@@H](Cc1ccc(-c2ccccc2)nc1)C(=O)O; Phe(4-COOH) = N[C@@H](Cc1ccc(C(=O)O)cc1)C(=O)O; NMe2Nal = CN[C@@H](Cc1ccc2ccccc2c1)C(=O)O; NMeQ = CN[C@@H](CCC(N)=O)C(=O)O; NMeK = CN[C@@H](CCCCN)C(=O)O; NMeC = CN[C@@H](CS)C(=O)O; NMeA = CN[C@@H](C)C(=O)O
# Biological target: T1, Human Glypican3-Fc (ACRO Biosystems, GP3-H5258) (human, UniProt P51654 25-559)
# T1 construct: Bought fusion protein, captured in Methods B-2, B-3 and B-4; Catalogue number is printed only in Method B-2; not shown: Fc part of the bought fusion
# Assay: SPR (Biacore T200), Method B-2: human Glypican3-Fc captured by anti-human Fc on CM3 chip, peptide as analyte
# Description: A CM3 sensor chip (Cytiva) was inserted into a Biacore T200 (Cytiva), primed three times with a running buffer: HBS-P-+, pH 7.4 (Cytiva), and equilibrated at a flow rate of 30 μL/min. Using the Anti-Fc Capture Kit (Cytiva), 50 LL each of 60 mM EDC solution (Cytiva) and 650 mM NHS solution (Cytiva) were mixed, and then reacted at a flow rate of 10 μL/min for 420 seconds, 150 μL of […] Anti-human IgG (Fc) Antibody solution was prepared by diluting with 10 mM acetic acid solution (pH 5.0), reacted at a flow rate of 10 μL/min for 420 seconds, and immobilized on a CM3 sensor chip. After immobilization, 1.0 M ethanolamine aqueous solution (Cytiva) was allowed to react for 420 seconds at a flow rate of 10 μL/min for capping. Human Glypican3-Fc (ACRO Biosystems, GP3-H5258) was allowed to react for 60 seconds at a flow rate of 10 μL/min. After capturing human Glypican3-Fc, a peptide solution prepared to 10 mM in DMSO solution was diluted with a running buffer to a final concentration of 10 μM. […] Using the above samples, peptide kinetics for Glypican3 was obtained by SPR measurement. Kinetics evaluation of Glypican3 was performed by SPR measurements at a flow rate of 10 μL/min. setting the association time to 120 seconds and the disassociation time to 600 seconds.
# The obtained data by Method B-1, Method B-2, Method B-3 and Method B-4 were analyzed by follow. Single Cycle Kinetics was used as the kinetics evaluation model, and curve fitting was performed using Biacore T200 Evaluation Software Version 3.0 (Cytiva).
row,Binder,Kd
1,{CH2CO}-[NMeQ][NMeQ]D[NMeK](DOTA‑Lu″)[Phe(4-COOH)]II[Phe(4-CH2COOH)][NMe2Nal]G[Phe(4-(1-Me-pyrazol-4-yl))][NMeC]-NH2 (thioether N-12) [Lu-C-26],2.52 nM
2,{CH2CO}-[NMeQ][MeHseMe]D[NMeQ][Phe(4-COOH)][Thr(Me)]I[YaeCOpipzaa][NMe2Nal]G[3Pal(6-Ph)][NMeC]-NH2 (thioether N-12; SMILES CC[C@H](C)[C@@H]1NC(=O)[C@H]([C@@H](C)OC)NC(=O)[C@H](Cc2ccc(C(=O)O)cc2)NC(=O)[C@H](CCC(N)=O)N(C)C(=O)[C@H](CC(=O)O)NC(=O)[C@H](CCOC)N(C)C(=O)[C@H](CCC(N)=O)N(C)C(=O)CSC[C@@H](C(N)=O)N(C)C(=O)[C@H](Cc2ccc(-c3ccccc3)nc2)NC(=O)CNC(=O)[C@H](Cc2ccc3ccccc3c2)N(C)C(=O)[C@H](Cc2ccc(OCCNC(=O)N3CCN(CC(=O)O)CC3)cc2)NC1=O) [Macrocyclic peptide of Example 2-19 (SEQ ID No. 37)],0.5 nM
3,{CH2CO}-[NMeQ][MeHseMe]D[NMeQ][Phe(4-COOH)][Thr(Me)(3)]I[F4aao][NMeAla(isoquinolin-7-yl)]G[Phe(4-(1-Me-pyrazol-4-yl))][NMeC]-NH2 (thioether N-12; SMILES CC[C@H](C)[C@@H]1NC(=O)[C@H]([C@@H](C)OC)NC(=O)[C@H](Cc2ccc(C(=O)O)cc2)NC(=O)[C@H](CCC(N)=O)N(C)C(=O)[C@H](CC(=O)O)NC(=O)[C@H](CCOC)N(C)C(=O)[C@H](CCC(N)=O)N(C)C(=O)CSC[C@@H](C(N)=O)N(C)C(=O)[C@H](Cc2ccc(-c3cnn(C)c3)cc2)NC(=O)CNC(=O)[C@H](Cc2ccc3ccncc3c2)N(C)C(=O)[C@H](Cc2ccc(OCC(=O)O)cc2)NC1=O) [Macrocyclic peptide of Example 2-18 (SEQ ID No. 36)],3.8 nM
4,{CH2CO}-[NMeK](DOTA‑Lu″)[MeHseMe(3)]D[NMeQ][Phe(4-COOH)]II[Phe(4-CH2COOH)][NMe2Nal]G[Phe(4-(1-Me-pyrazol-4-yl))][NMeC]-NH2 (thioether N-12) [Lu-C-22],1.99 nM
5,{CH2CO}-[NMeA][NMeQ]D[NMeQ][Phe(4-COOH)]II[Phe(4-COOH)][NMe2Nal]G[3Pal(6-Ph)][NMeC]-NH2 (thioether N-12; SMILES CC[C@H](C)[C@@H]1NC(=O)[C@H](Cc2ccc(C(=O)O)cc2)NC(=O)[C@H](CCC(N)=O)N(C)C(=O)[C@H](CC(=O)O)NC(=O)[C@H](CCC(N)=O)N(C)C(=O)[C@H](C)N(C)C(=O)CSC[C@@H](C(N)=O)N(C)C(=O)[C@H](Cc2ccc(-c3ccccc3)nc2)NC(=O)CNC(=O)[C@H](Cc2ccc3ccccc3c2)N(C)C(=O)[C@H](Cc2ccc(C(=O)O)cc2)NC(=O)[C@H]([C@@H](C)CC)NC1=O) [Macrocyclic peptide of Example 2-23 (SEQ ID No. 43)],1.5 nM
